Where “and” joins values, the source holds several entries; their conditions need not be identical. Equal entries are not always repeated.
Assays:
[1] = biological target: T1, murine LAG3-Fc antigen (R&D Systems, 3328-L3-050) (murine, UniProt Q61790 24-442); experiment: ELISA using murine LAG3-Fc antigen
T1 construct: Bought reagent
T1 sequence (looked up): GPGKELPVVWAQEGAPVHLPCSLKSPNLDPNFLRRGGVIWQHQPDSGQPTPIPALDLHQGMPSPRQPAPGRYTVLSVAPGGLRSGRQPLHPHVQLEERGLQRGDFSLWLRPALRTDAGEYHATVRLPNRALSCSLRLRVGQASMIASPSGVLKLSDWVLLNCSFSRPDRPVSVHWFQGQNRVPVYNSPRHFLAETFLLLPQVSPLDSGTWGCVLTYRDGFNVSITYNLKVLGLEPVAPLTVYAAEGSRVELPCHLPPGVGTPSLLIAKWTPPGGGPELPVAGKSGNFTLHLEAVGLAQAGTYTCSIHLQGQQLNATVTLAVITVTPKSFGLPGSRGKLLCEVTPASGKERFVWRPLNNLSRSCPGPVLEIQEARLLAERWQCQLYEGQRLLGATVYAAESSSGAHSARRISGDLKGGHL

[2] = biological target: T2, human LAG3 on recombinant CHO cells (human, UniProt P18627 23-525); experiment: cell ELISA on CHO cells expressing human LAG3;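 note: bivalent Fc-format binders titrated in threefold steps from 6 µg/mL, incubated with the cells 2 h at 4 °C, bound antibody detected by HRP-coupled anti-human IgG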
T2 construct: whole, on cells; also called Lag3 cells; recombinant CHO cells expressing Lag3
T2 sequence (looked up): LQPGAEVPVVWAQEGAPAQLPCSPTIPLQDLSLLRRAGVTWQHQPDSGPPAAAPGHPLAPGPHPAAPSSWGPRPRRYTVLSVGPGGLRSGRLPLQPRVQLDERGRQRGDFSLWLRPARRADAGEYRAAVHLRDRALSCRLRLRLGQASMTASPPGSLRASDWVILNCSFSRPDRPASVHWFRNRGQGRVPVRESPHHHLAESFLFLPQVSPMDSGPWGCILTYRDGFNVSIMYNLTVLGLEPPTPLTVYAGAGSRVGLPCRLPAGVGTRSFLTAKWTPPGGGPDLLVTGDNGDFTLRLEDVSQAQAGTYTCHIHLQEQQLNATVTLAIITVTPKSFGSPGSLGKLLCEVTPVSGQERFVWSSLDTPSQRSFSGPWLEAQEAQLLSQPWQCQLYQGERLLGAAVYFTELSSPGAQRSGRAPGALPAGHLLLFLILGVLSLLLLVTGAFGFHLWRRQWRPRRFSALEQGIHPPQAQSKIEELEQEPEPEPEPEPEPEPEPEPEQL

[3] = biological target: T3, recombinant human LAG3 Fc Chimera Protein (R&D Systems, 2319-L3) (human, UniProt P18627 23-450); experiment: ELISA, plate coated with human LAG3 Fc chimera
T3 construct: Bought reagent
T3 sequence (looked up): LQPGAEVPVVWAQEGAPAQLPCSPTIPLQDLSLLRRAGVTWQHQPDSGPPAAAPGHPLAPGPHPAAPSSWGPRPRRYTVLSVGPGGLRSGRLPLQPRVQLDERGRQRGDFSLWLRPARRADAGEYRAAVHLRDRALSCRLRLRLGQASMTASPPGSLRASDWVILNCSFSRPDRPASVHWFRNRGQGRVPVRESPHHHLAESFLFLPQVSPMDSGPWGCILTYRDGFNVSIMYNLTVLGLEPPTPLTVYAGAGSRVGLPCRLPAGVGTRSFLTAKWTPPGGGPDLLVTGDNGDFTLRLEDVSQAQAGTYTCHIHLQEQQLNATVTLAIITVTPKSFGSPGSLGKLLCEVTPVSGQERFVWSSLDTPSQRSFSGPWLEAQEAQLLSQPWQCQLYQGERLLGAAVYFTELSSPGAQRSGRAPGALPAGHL

[4] = biological target: T3, recombinant human LAG3 Fc Chimera …; experiment: SPR (Biacore), aVH-Fc captured by anti-human Fc, human LAG-3 Fc chimera as analyte, 25 C
[5] = biological target: T4, soluble human Lag3-IgG1-Fc with biotinylated C-terminal Avi-tag (human, biotin on the C-terminal Avi-tag); experiment: A375 MHCII competition ELISA, biotinylated Lag3 250 ng/ml; competitor MHCII on A375 cells
T4 construct: also called LAG3-Fc-avi; biotinylated LAG3-Fc antigen

[6] = biological target: T3, recombinant human LAG3 Fc Chimera …; experiment: SPR (Biacore), aVH-Fc captured by anti-human Fc, human LAG-3 Fc chimera as analyte, 25 C; * poor fit
[7] = biological target: T4, soluble human Lag3-IgG1-Fc with …; experiment: A375 MHCII competition ELISA at 3 µg/ml, biotinylated Lag3 250 ng/ml; competitor MHCII on A375 cells
[8] = biological target: T3, recombinant human LAG3 Fc Chimera …; experiment: SPR (Biacore), antibody captured by anti-human Fc, human LAG-3 Fc chimera as analyte, 25 C

B1: bivalent P11A2 aVH-Fc (Fc fusion)
chain: EVQLVESGGGLVQPGGSLRLSCAASSFNIKDTYIGWVRRAPGKGTELVAEIACHEGTTRYADSVKGRFTISCDTSKNTAYLQMNSLRAEDTAVYYCANTEYDDIFDYWGQGTTVTVSSGGGGSGGGGSDKTHTCPPCPAPEAAGGPSVFLFPPKPKDTLMISRTPEVTCVVVDVSHEDPEVKFNWYVDGVEVHNAKTKPREEQYNSTYRVVSVLTVLHQDWLNGKEYKCKVSNKALGAPIEKTISKAKGQPREPQVYTLPPSRDELTKNQVSLTCLVKGFYPSDIAVEWESNGQPENNYKTTPPVLDSDGSFFLYSKLTVDKSRWQQGNVFSCSVMHEALHNHYTQKSLSLSPGK
**Q.** Does B1 bind [1]?
**A.** no binding

**Q.** And the EC50 [2]?
**A.** 0.0169 µg/mL and 0.2 nM

**Q.** And the OD max [2]?
**A.** 1.2 OD

**Q.** And the OD max [3]?
**A.** 1.3 OD

**Q.** What about the t1/2 [4] of the same binder?
**A.** 2.4 min

**Q.** What about the IC50 [5] of the same binder?
**A.** 0.0903 µg/mL and 1.2 nM

**Q.** What about the koff [6] of the same binder?
**A.** 0.0048 s⁻¹

**Q.** And the “% Inhibition” value [7]?
**A.** 92.4%

B2: control antibody MDX25F7 (antibody, V domains shown)
VH: QVQLQQWGAGLLKPSETLSLTCAVYGGSFSDYYWNWIRQPPGKGLEWIGEINHNGNTNSNPSLKSRVTLSLDTSKNQFSLKLRSVTAADTAVYYCAFGYSDYEYNWFDPWGQGTLVTVSS
VL: EIVLTQSPATLSLSPGERATLSCRASQSISSYLAWYQQKPGQAPRLLIYDASNRATGIPARFSGSGSGTDFTLTISSLEPEDFAVYYCQQRSNWPLTFGQGTNLEIK
**Q.** With B2 as the binder, how does the OD max [2] read?
**A.** 2.06 OD

**Q.** What about the EC50 [3] of the same binder?
**A.** 0.0031 µg/mL and 0.02 nM

**Q.** And the OD max [3]?
**A.** 3.39 OD

**Q.** What about the IC50 [5] of the same binder?
**A.** 0.127 µg/mL and 0.8 nM

**Q.** And the koff [8]?
**A.** 0.00039 s⁻¹

**Q.** And the t1/2 [8]?
**A.** 30 min

**Q.** And the “% Inhibition” value [7]?
**A.** 90.4%
